# Laboratory results reported in the RNAGym collection of RNA variant scans (doi:10.1073/pnas.2313332121).
# B1: TPR t1 (parent)
# chain: GACCAAUCUGCCCUCAGAGCUCGAGAACAUCUUCGGAUGCAGAGGAGGCAGGCUUCGGUGGCGCGAUAGCGCCAACGUCCUCAACCUCCAAUGCAUCCCACCACAUGAUGAUGCCUGAAGAGCCUUGGUUUUUUG
# Variants of: B1
# Experiment: polymerase ribozyme fitness, log enrichment relative to wild type (log ratio); higher = more active; in vitro selection for triplet polymerase activity
# How it was run: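 Fitness measures genotype enrichment against wild-type enrichment on a logarithmic scale, with inverse-variance-weighted averaging of replicates. The logarithm is base 2, and genotypes were kept only with ≥10 input reads and ≥1 read per output in Illumina sequencing. The sequenced libraries came from one triplicate in vitro selection round, including frozen incubation at −7 °C, of PCR-built, transcribed mutant libraries of each subunit of a heterodimeric triplet polymerase ribozyme.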
row,Variant,polymerase ribozyme fitness (log ratio)
1,GACCAAUCUGCCCUCAGAGCUCGAGAACAUCUUCGGAUGCAGAGGAGGUAGGCUUCGGUGGCGCGAUAGCGCCAACGUCCUCAACCUCCAAUGCUUCCCACCACAUGAUGAUGCCUGAAGAGCCUUGGUGUUUUG [C49U A95U U130G],-1.71
2,GACCAAUCUGCCCUCAGAGCUCGAGAACAUCUUCGGAUGCAGAGGAGGUAGGCUUCGGUGGCGCGAUAGUGCCAACGUCCUCAACCUCCAAUGCAUCCCACCACAUGAUGAUGCCUGAAGAGCCUUGGUCUUUUG [C49U C70U U130C],-0.66
3,GACCAAUCUGCCCUCAGAGCUCGAGAACAUCUUCGGAUGCAGAGGAGGUAGGCUUCGGUGGCGCGAUGGCGCCAACGUCCUCAACCUCCAAUGCAUCCCACCACAUGAUGAUGCCUGAAGAGCCUUGGUUUUUUG [C49U A68G],-4.08
4,GACCAAUCUGCCCUCAGAGCUCGAGAACAUCUUCGGAUGCAGAGGAGGUAGGCUUCGGUGGCGCGAUAGCGCAAACGUCCUCAACCUCCAAUGCAUCCCACUACAUGAUGAUGCCUGAAGAGCCUUGGUUUUUUG [C49U C73A C102U],-2.56
5,GACCAAUCUGCCCUCAGAGCUCGAGAACAUCUUCGGAUGCAGAGGAGGUAGGCUUCGGUGGCGCGAUAGCGCCAACGUCCUCAACCUCCAAUGCAUCCCACCACAUGAUGAUGCCUGAUGAUCCUUGGUUUUUUG [C49U A119U G122U],-1.11
6,GACCAAUCUGCCCUCAGAGCUCGAGAACAUCUUCGGAUGCAGAGGAGGUAGGCUUCGGUGGCGCGAUAGCGCAUACGUCCUCAACCUCCAAUGCAUCCCACUACAUGAUGAUGCCUGAAGAGCCUUGGUUUUUUG [C49U C73A A74U C102U],-3.4
7,GACCAAUCUGCCCUCAGAGCUCGAGAACAUCUUCGGAUGCAGAGGAGGGAGGCUUCGGUGGCGCGAUAGCGCCAACGCCCUCAACCUCCAAUGCCUCCCACCACAUGAUGAUGCCUGAAGAGCCUUGGUUUUUUG [C49G U78C A95C],-2.13
8,GACCAAUCUGCCCUCAGAGCUCGAGAACAUCUUCGGAUGCAGAGGAGGUAGGCUUCGGUGGCGCGAUAGCGCCAACGUCCUCACCCUCCAAUGCAUCCCACCACAUGAUGAUGCCUGAAGAGCCUUGGUUUUUUG [C49U A84C],-1.9
9,GACCAAUCUGCCCUCAGAGCUCGAGAACAUCUUCGGAUGCAGAGGAGGGAGGCUUCGGUGGCGCGAUAGCGCCAACGUCCCCAACCUCCAAUGCAUCCCACCACAUGAUGAUGCCUGAAGAGCCUUGGUUUUUUG [C49G U81C],-3.21
10,GACCAAUCUGCCCUCAGAGCUCGAGAACAUCUUCGGAUGCAGAGGAGGUGGGCUUCGGUGGCGCGAUAGCGCCAACGCCCUCAACCUCCAAUGCAUCCCACCACAUGAUGAUGCAUGAAGAGCCUUGGUUUUUUG [C49U A50G U78C C115A],-1.98
11,GACCAAUCUGCCCUCAGAGCUCGAGAACAUCUUCGGAUGCAGAGGAGGUAGGCUUCGGUGGCGCGAUAGCGCCAACGUCCUCAACCUCCAAUGCGUCCCACCACAUGAUGAAGCCUGAAGAGCCUUGGUUUUUUG [C49U A95G U112A],0.0263
12,GACCAAUCUGCCCUCAGAGCUCGAGAACAUCUUCGGAUGCAGAGGAGGUAGGCUUCGGUGGCGCGAUAGCGCCAACGUCCUCAACCUCCAAUGCAUCCCACCACAUGAUGAUGCCUGAUGAGCCUUGGUUUUUUG [C49U A119U],-0.961
13,GACCAAUCUGCCCUCAGAGCUCGAGAACAUCUUCGGAUGCAGAGGAGGUAGGCUUAGGUGGCGCGAUAGCGCCAACGUCCUCAACCUCCAAUGCAUCCCACCACAUGAUGAUGCCUGAAGAGCCUUGGUUUUUUG [C49U C56A],-1
14,GACCAAUCUGCCCUCAGAGCUCGAGAACAUCUUCGGAUGCAGAGGAGGGAGGCUUCGGUGGCGCGAUAGCGCCAACGUCCUCAACCUCCAAUGCAUCCCACCACAUGAUGAUGCCGGAAGAGCCUUGGUUUUUUG [C49G U116G],-2.61
15,GACCAAUCUGCCCUCAGAGCUCGAGAACAUCUUCGGAUGCAGAGGAGGUAGGCUUCGGUGGCGCGAUAGAGCCAACGUCCUCAACCUCCAAUGCAUCCCACCACAUGAUGAUGCCUGAAGAGCCUUGGUUUUUUG [C49U C70A],-2.47
16,GACCAAUCUGCCCUCAGAGCUCGAGAACAUCUUCGGAUGCAGAGGAGGUAGGCUUCGGUGGUGCGAUAGCGCCAACGUCCUCAACCUCCAAUGCAUCCCACCACAUGAUGAUGCCUGAAGAGCCUUGGUUUUUUG [C49U C62U],-1.19
17,GACCAAUCUGCCCUCAGAGCUCGAGAACAUCUUCGGAUGCAGAGGAGGGAGGCUUCGGUGGCGCGAUAGCGCCAACGUCCUCAACCUCCAAAGCAUCCCACCACAUGAUGAUGCCUGAAGAGGCUUGGUUUUUUG [C49G U92A C123G],-3.27
18,GACCAAUCUGCCCUCAGAGCUCGAGAACAUCUUCGGAUGCAGAGGAGGGAGGCUGCGGUGGCGCGAUAGCGCCAACGUCCUCAACCUCAAACGCAUCCCACCACAUGAUGAUGCCUGAAGAGCCUUGGUUUUUUG [C49G U55G C89A U92C],-5.1
19,GACCAAUCUGCCCUCAGAGCUCGAGAACAUCUUCGGAUGCAGAGGAGGUAGGCUUCGGUGGCGCGAUAGCGCCAACGUCCUCAACCUCCAAUGCAUCCCACCACAUGAUGAUGCCUGAAGAGCCUUGGUUUUUUG [C49U],-0.473
20,GACCAAUCUGCCCUCAGAGCUCGAGAACAUCUUCGGAUGCAGAGGAGGUAGGCUUCGGUGGCGCGAUAGCGGCAACGUCCUCAACCUCCAAUGCAUCCCACCACAUGAUGAUGCCUGAAGAGCCUUGGUUUUUUG [C49U C72G],-0.927
21,GACCAAUCUGCCCUCAGAGCUCGAGAACAUCUUCGGAUGCAGAGGAGGUAGGCUUAGGUGGCGCGAUAGUGCCAAAGUCCUCAACCUCCAAUGCAUCCCACCACAUGAUGAUGCCUGAAGAGCCUUGGUUUAUUG [C49U C56A C70U C76A U132A],-3.06
